In publication PMC10883291:
pEC50: −log10 of the molar value.

Legend:
Experiment in all cases: FRET or BRET; time-resolved FRET (Cisbio); FcγRs expressed on HEK293 cells (Tb donor cells); IgG-d2 acceptor conjugate displaced by the test antibodies; EC50 by the manufacturer's protocol
FcγR1 (CD64) (human) = FcγR1 (CD64) (human) (UniProt P12314)
[1] = molecular target: FcγR2A (CD32aH131) (human) (UniProt P12318)
FcγR2B (human) = FcγR2B (human) (UniProt P31994)
[2] = molecular target: FcγR3A (CD16aF158) (human) (UniProt P08637)
[3] = molecular target: FcγR2A (CD32aR131) (human)
Sequence of FcγR2A (CD32aR131) (human) (P12318 34-317 H167R): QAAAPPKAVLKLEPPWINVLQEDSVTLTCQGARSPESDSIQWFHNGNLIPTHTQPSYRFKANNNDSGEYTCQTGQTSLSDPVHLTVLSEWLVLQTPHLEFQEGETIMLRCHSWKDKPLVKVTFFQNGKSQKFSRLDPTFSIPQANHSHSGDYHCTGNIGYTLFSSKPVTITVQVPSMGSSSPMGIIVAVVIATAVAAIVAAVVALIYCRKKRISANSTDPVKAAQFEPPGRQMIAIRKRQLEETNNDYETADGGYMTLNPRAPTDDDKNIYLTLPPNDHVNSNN

Sequence of FcγR2A (CD32aH131) (human) (P12318 34-317): as the sequence (P12318 34-317 H167R) above, with R134H counted along it
Sequence of FcγR1 (CD64) (human) (P12314 16-374): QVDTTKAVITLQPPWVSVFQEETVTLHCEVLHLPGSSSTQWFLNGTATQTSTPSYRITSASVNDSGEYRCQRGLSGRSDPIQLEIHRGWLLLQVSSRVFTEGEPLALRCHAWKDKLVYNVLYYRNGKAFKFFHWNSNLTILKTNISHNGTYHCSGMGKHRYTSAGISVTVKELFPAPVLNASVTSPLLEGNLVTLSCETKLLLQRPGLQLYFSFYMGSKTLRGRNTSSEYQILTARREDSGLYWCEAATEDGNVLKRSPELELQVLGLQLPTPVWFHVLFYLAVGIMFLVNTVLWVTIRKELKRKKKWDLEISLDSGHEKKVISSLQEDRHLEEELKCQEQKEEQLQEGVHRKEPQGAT
Sequence of FcγR2B (human) (P31994 43-310): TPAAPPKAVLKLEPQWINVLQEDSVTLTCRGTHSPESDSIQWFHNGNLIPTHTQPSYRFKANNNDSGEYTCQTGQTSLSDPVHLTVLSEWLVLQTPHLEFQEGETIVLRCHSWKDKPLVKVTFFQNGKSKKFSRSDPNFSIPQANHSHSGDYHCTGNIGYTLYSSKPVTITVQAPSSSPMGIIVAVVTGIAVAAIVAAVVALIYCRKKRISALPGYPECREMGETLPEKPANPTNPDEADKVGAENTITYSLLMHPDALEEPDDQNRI
Sequence of FcγR3A (CD16aF158) (human) (P08637 17-254): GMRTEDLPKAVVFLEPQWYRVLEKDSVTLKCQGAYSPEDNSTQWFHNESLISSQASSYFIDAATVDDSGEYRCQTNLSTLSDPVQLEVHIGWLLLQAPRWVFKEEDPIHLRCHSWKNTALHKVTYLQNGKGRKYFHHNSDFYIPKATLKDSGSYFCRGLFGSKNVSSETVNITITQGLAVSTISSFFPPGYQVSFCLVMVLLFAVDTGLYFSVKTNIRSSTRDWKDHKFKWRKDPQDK

Work on BMS-986351 (antibody) yielded a pEC50 (FcγR1 (CD64) (human)) of 9.10, a pEC50 [1] of 6.70 and a pEC50 (FcγR2B (human)) of 5.61. It also gave a pEC50 [2] of 5.92.
For Rituximab (antibody), the pEC50 (FcγR1 (CD64) (human)) was 9.10, the pEC50 [3] was 6.71 and the pEC50 [1] was 6.44.
